The values below are quoted from earlier work in publication PMC5010500 (Journal of molecular biology, 2016).

The target in this data set is Keap1 Kelch domain (Homo sapiens) (UniProt Q14145). The experiment in a line: ITC. Conditions: cited from earlier work.
Keap1 Kelch domain (Homo sapiens), sequence (Q14145 321-609): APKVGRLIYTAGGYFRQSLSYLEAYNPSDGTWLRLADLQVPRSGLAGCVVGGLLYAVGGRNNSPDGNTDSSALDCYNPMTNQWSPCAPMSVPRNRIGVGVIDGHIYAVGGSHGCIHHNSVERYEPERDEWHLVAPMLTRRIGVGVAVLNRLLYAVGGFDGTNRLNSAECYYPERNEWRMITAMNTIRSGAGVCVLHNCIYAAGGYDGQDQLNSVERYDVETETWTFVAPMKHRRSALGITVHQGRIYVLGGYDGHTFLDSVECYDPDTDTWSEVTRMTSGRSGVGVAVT

mVP24, sequence (P35256 whole entry): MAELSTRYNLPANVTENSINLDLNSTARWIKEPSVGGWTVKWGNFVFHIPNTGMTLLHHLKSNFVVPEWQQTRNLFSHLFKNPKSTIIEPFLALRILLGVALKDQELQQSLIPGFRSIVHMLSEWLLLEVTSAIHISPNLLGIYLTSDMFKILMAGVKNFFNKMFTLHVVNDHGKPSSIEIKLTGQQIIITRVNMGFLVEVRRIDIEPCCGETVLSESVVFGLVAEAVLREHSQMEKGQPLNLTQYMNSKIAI

Usually Kd stands for the free concentration of one partner at which half of the binding sites on the other are occupied at equilibrium, for simple one-to-one binding. Consider mVP24 (from UniProt P35256), for which the Kd was 160 nM.
